The nature of series [1]: rescue of surface CD55 in PIGS-KO cells, flow cytometry. The settings on record: glycan lost; control: wild-type PIGS.
A short description of series [2]: rescue of surface CD55 in GPAA1-KO cells, flow cytometry. Particulars: glycan lost; control: wild-type GPAA1. Background: Flow cytometry measures light scatter and fluorescence of single cells or particles in a stream.
Series [3] in a line: rescue of surface CD55 in PIGT-KO cells, flow cytometry. The settings on record: glycan lost; control: wild-type PIGT.

B1: PIGS: N267Q (protein)
parent chain: MAAAGAAATHLEVARGKRAALFFAAVAIVLGLPLWWKTTETYRASLPYSQISGLNALQLRLMVPVTVVFTRESVPLDDQEKLPFTVVHEREIPLKYKMKIKCRFQKAYRRALDHEEEALSSGSVQEAEAMLDEPQEQAEGSLTVYVISEHSSLLPQDMMSYIGPKRTAVVRGIMHREAFNIIGRRIVQVAQAMSLTEDVLAAALADHLPEDKWSAEKRRPLKSSLGYEITFSLLNPDPKSHDVYWDIEGAVRRYVQPFLNALGAAGNFSVDSQILYYAMLGVNPRFDSASSSYYLDMHSLPHVINPVESRLGSSAASLYPVLNFLLYVPELAHSPLYIQDKDGAPVATNAFHSPRWGGIMVYNVDSKTYNASVLPVRVEVDMVRVMEVFLAQLRLLFGIAQPQLPPKCLLSGPTSEGLMTWELDRLLWARSVENLATATTTLTSLAQLLGKISNIVIKDDVASEVYKAVAAVQKSAEELASGHLASAFVASQEAVTSSELAFFDPSLLHLLYFPDDQKFAIYIPLFLPMAVPILLSLVKIFLETRKSWRKPEKTD
For the protein B1, the enzymatic_activity entry in series [1] is “no change”.

B2: PIGS: N370Q (protein)
parent chain: MAAAGAAATHLEVARGKRAALFFAAVAIVLGLPLWWKTTETYRASLPYSQISGLNALQLRLMVPVTVVFTRESVPLDDQEKLPFTVVHEREIPLKYKMKIKCRFQKAYRRALDHEEEALSSGSVQEAEAMLDEPQEQAEGSLTVYVISEHSSLLPQDMMSYIGPKRTAVVRGIMHREAFNIIGRRIVQVAQAMSLTEDVLAAALADHLPEDKWSAEKRRPLKSSLGYEITFSLLNPDPKSHDVYWDIEGAVRRYVQPFLNALGAAGNFSVDSQILYYAMLGVNPRFDSASSSYYLDMHSLPHVINPVESRLGSSAASLYPVLNFLLYVPELAHSPLYIQDKDGAPVATNAFHSPRWGGIMVYNVDSKTYNASVLPVRVEVDMVRVMEVFLAQLRLLFGIAQPQLPPKCLLSGPTSEGLMTWELDRLLWARSVENLATATTTLTSLAQLLGKISNIVIKDDVASEVYKAVAAVQKSAEELASGHLASAFVASQEAVTSSELAFFDPSLLHLLYFPDDQKFAIYIPLFLPMAVPILLSLVKIFLETRKSWRKPEKTD
As to B2, the enzymatic_activity result in series [1] was “no change”.

B3: GPAA1: N203Q (protein)
parent chain: MGLLSDPVRRRALARLVLRLNAPLCVLSYVAGIAWFLALVFPPLTQRTYMSENAMGSTMVEEQFAGGDRARAFARDFAAHRKKSGALPVAWLERTMRSVGLEVYTQSFSRKLPFPDETHERYMVSGTNVYGILRAPRAASTESLVLTVPCGSDSTNSQAVGLLLALAAHFRGQIYWAKDIVFLVTEHDLLGTEAWLEAYHDVNVTGMQSSPLQGRAGAIQAAVALELSSDVVTSLDVAVEGLNGQLPNLDLLNLFQTFCQKGGLLCTLQGKLQPEDWTSLDGPLQGLQTLLLMVLRQASGRPHGSHGLFLRYRVEALTLRGINSFRQYKYDLVAVGKALEGMFRKLNHLLERLHQSFFLYLLPGLSRFVSIGLYMPAVGFLLLVLGLKALELWMQLHEAGMGLEEPGGAPGPSVPLPPSQGVGLASLVAPLLISQAMGLALYVLPVLGQHVATQHFPVAEAEAVVLTLLAIYAAGLALPHNTHRVVSTQAPDRGWMALKLVALIYLALQLGCIALTNFSLGFLLATTMVPTAALAKPHGPRTLYAALLVLTSPAATLLGSLFLWRELQEAPLSLAEGWQLFLAALAQGVLEHHTYGALLFPLLSLGLYPCWLLFWNVLFWK
As for B3, the enzymatic_activity entry in series [2] is “no change”.

B4: PIGT: N164Q (protein)
parent chain: MAAAMPLALLVLLLLGPGGWCLAEPPRDSLREELVITPLPSGDVAATFQFRTRWDSELQREGVSHYRLFPKALGQLISKYSLRELHLSFTQGFWRTRYWGPPFLQAPSGAELWVWFQDTVTDVDKSWKELSNVLSGIFCASLNFIDSTNTVTPTASFKPLGLANDTDHYFLRYAVLPREVVCTENLTPWKKLLPCSSKAGLSVLLKADRLFHTSYHSQAVHIRPVCRNARCTSISWELRQTLSVVFDAFITGQGKKDWSLFRMFSRTLTEPCPLASESRVYVDITTYNQDNETLEVHPPPTTTYQDVILGTRKTYAIYDLLDTAMINNSRNLNIQLKWKRPPENEAPPVPFLHAQRYVSGYGLQKGELSTLLYNTHPYRAFPVLLLDTVPWYLRLYVHTLTITSKGKENKPSYIHYQPAQDRLQPHLLEMLIQLPANSVTKVSIQFERALLKWTEYTPDPNHGFYVSPSVLSALVPSMVAAKPVDWEESPLFNSLFPVSDGSNYFVRLYTEPLLVNLPTPDFSMPYNVICLTCTVVAVCYGSFYNLLTRTFHIEEPRTGGLAKRLANLIRRARGVPPL
Consider B4, for which the enzymatic_activity result in series [3] is recorded as “no change”.

B5: PIGT: N291Q (protein)
parent chain: MAAAMPLALLVLLLLGPGGWCLAEPPRDSLREELVITPLPSGDVAATFQFRTRWDSELQREGVSHYRLFPKALGQLISKYSLRELHLSFTQGFWRTRYWGPPFLQAPSGAELWVWFQDTVTDVDKSWKELSNVLSGIFCASLNFIDSTNTVTPTASFKPLGLANDTDHYFLRYAVLPREVVCTENLTPWKKLLPCSSKAGLSVLLKADRLFHTSYHSQAVHIRPVCRNARCTSISWELRQTLSVVFDAFITGQGKKDWSLFRMFSRTLTEPCPLASESRVYVDITTYNQDNETLEVHPPPTTTYQDVILGTRKTYAIYDLLDTAMINNSRNLNIQLKWKRPPENEAPPVPFLHAQRYVSGYGLQKGELSTLLYNTHPYRAFPVLLLDTVPWYLRLYVHTLTITSKGKENKPSYIHYQPAQDRLQPHLLEMLIQLPANSVTKVSIQFERALLKWTEYTPDPNHGFYVSPSVLSALVPSMVAAKPVDWEESPLFNSLFPVSDGSNYFVRLYTEPLLVNLPTPDFSMPYNVICLTCTVVAVCYGSFYNLLTRTFHIEEPRTGGLAKRLANLIRRARGVPPL
Turning to B5, the enzymatic_activity entry in series [3] was “no change”.

B6: PIGT: N327Q (protein)
parent chain: MAAAMPLALLVLLLLGPGGWCLAEPPRDSLREELVITPLPSGDVAATFQFRTRWDSELQREGVSHYRLFPKALGQLISKYSLRELHLSFTQGFWRTRYWGPPFLQAPSGAELWVWFQDTVTDVDKSWKELSNVLSGIFCASLNFIDSTNTVTPTASFKPLGLANDTDHYFLRYAVLPREVVCTENLTPWKKLLPCSSKAGLSVLLKADRLFHTSYHSQAVHIRPVCRNARCTSISWELRQTLSVVFDAFITGQGKKDWSLFRMFSRTLTEPCPLASESRVYVDITTYNQDNETLEVHPPPTTTYQDVILGTRKTYAIYDLLDTAMINNSRNLNIQLKWKRPPENEAPPVPFLHAQRYVSGYGLQKGELSTLLYNTHPYRAFPVLLLDTVPWYLRLYVHTLTITSKGKENKPSYIHYQPAQDRLQPHLLEMLIQLPANSVTKVSIQFERALLKWTEYTPDPNHGFYVSPSVLSALVPSMVAAKPVDWEESPLFNSLFPVSDGSNYFVRLYTEPLLVNLPTPDFSMPYNVICLTCTVVAVCYGSFYNLLTRTFHIEEPRTGGLAKRLANLIRRARGVPPL
B6: the enzymatic_activity result in series [3] is on record as “no change”.
